Sequences and labels used below:
B1: Frey regulator of sperm-oocyte fusion 1 with C-terminal 3xFLAG tag (Frey1-3xFLAG), wild type [murine] / Signal Peptide Peptidase-like 2c, C-terminally myc-tagged (SPPL2c-myc) [murine] (parent)
chain 1: MVLAMLGALYPRAGLSLFLFYLILAGALLRPQPQRSQQSVPEEFSAPLELLQPLSGLVDDYGLRPKHPRPGGPRPLLSQAQQRKRDGPNMADYYYDVNL
chain 2: EYGLVRVVSKNWSKDYCVLYSSDYVNLPRDLHHAPLLSLHDGTKTPWCPDEDSFHQAQDSSPRQRPLHQTTTMVTRGNCSFYAKGWLAQDQGAQGLLIVSRARNQQCSDTISKPQDPSKPWPALTIPVAVLRYTDMLDIVSHTYGDTDVRVAMFAPLEPVTDYNMAIIFILAVGTVAAGGYWAGLMEANKLQRRQAQRGGGLGGHNQQQTVAAERSQRAWEDDDFEDAPMDFTPAMTGAVVTMSCSIMILLYFFYDCFVYVMIGIFSLGASTGLYSCLAPILCHLPLWRYQWVLPGQRVSVTWPLLLLAGLCAMVTVLWVIHRNEDHWAWLLQDTLGVAYCLFVLRRVRLPTFKNCTLFLLALLAFDVFFVFITPLFTKTGESIMVEVASGPADSSSHERLPMVLKVPRLSFSALTLCNQPFSILGFGDIVVPGFLVAYCHRFDMQVQSRQVYYMACTVAYAVGLLVTFVAMILMQMGQPALLYLVSSTLLTSLAVATCRQEFTLFWTGQGRAKIPAEPVAQPCIASAVGSKMKLEDAKDSRTTNRFEQAVDGESGDLESSTGDDMAEMVTLSEDEATSPEGHSESSEGWSDTNLDPNELPSGSPMALEAMLIPLIQPIPHPSELGHIRTQSRVHDSSLPWMGLHKRKGLKVKKSMSAQAPL

The variants in one assay derive from B1. As to the kind of experiment: co-immunoprecipitation (anti-FLAG IP, Western blot quantification). Conditions: with Signal Peptide Peptidase-like 2c, transiently transfected HEK cells, n = 6, parent: 100, read off a plot. A general note: In western blotting, separated proteins are transferred to a membrane and probed.
In the case of chain 1 P11L G14L S16T G26A, the percent of parent (% of Frey1 Wt) was 17.

The variants in another assay derive from B1. As to the kind of experiment: competition co-immunoprecipitation pulling on Frey1 (anti-FLAG IP, Western blot quantification). The following applies: with Signal Peptide Peptidase-like 2c, co-expression of HA-HO-1 as competitor, value is relative to the same Frey1 variant without HA-HO-1 (EV = 100), transiently transfected HEK cells, n = 3, parent: 100, read off a plot.
As for chain 1 P11L G14L S16T G26A, the co-precipitated SPPL2c, percent of no-competitor control is 59 % of EV.

Values taken from paper PMC10234869.
